Test system: MS2 coat protein
Assay: apparent KD of MS2 coat protein; designed switch direction (-1 OFF switch, 1 ON switch): -1; higher = weaker reporter binding
In short: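 Designed RNA switches were transcribed on Illumina chips by stalled E. coli RNA polymerase and titrated with SNAP-549-labelled MS2 coat protein from 0.7 or 1.5 nM, doubling to 3 µM. Step length ran from 0.8–1.5 h at the lowest concentration to 10–20 min at the highest. The apparent KD is the median over clusters for each design, from curve-fitted normalised cluster fluorescence.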

[1] = input ligand: microRNA oligo, concentration not stated
[2] = Eterna round: R95, input ligand: FMN 200 uM
[3] = Eterna round: R95, input ligand: microRNA oligo, concentration not stated
[4] = Eterna round: R95, input ligand: none

Row | Sequence | apparent KD of MS2 coat protein (input ligand: FMN 200 uM) [nM] | apparent KD of MS2 coat protein [1] [nM] | apparent KD of MS2 coat protein (input ligand: none) [nM] | apparent KD of MS2 coat protein [2] [nM] | apparent KD of MS2 coat protein [3] [nM] | apparent KD of MS2 coat protein [4] [nM]
1 | CGUCGACAUGUAGGAUAUCUGCACGUUUAGUGCAGAGAAGGACAUGAGGAUCACCCAUGUAGAUCACGACGAAUUAAUUUAAUU [ENG1/6-C2] (Eterna round: R96, puzzle: Exclusion NG 1) | 24 | 205 | 1540 |  |  | 
2 | CGUCUGUAAGGAUAUGGUAGCAUUUACAUGAGGAUCACCCAUGUUACAUGGGACUAGUGACUAGAAGGUACGAACG [EX5 #54] (Eterna round: R97, puzzle: Exclusion 5) | 106 |  | 142 |  |  | 
3 | CGUGACUCAGGAUAUCUAUAGUAUCACAUGAGGAUCACCCAUGUCCAGCGAAAGCUGGAGGGAGAAGGGAGUCACG [Fiskers Ex 5 - 42] (Eterna round: R96, puzzle: Exclusion 5) | 74.1 | 230 | 188 |  |  | 
4 | CGUGACUCAGGAUAUCUAUAGUAUCACAUGAGGAUCACCCAUGUCCAGCGAAAGCUGGAGGGAGAAGGGAGUCACG [Fiskers Ex 5 - 42] (puzzle: Exclusion 5) |  |  |  | 71.3 | 130 | 229
5 | CGUGACUCAGGAUAUGUAUAAUAUCACAUGAGGAUCACCCAUGUCCAGCGAAAGCUGGAAGCAGAAGGGAGUCACG [Fiskers Ex 5 - 39] (puzzle: Exclusion 5) |  |  |  | 85.1 | 41.6 | 111
6 | CGUGACUGAGGAUAUCUAUGAUAUCACAUGAGGAUCACCCAUGUCCAGCGAAAGCUGGAGGGAGAAGGCAGUCACG [Fiskers Ex 5 - 30] (puzzle: Exclusion 5) |  |  |  | 61.5 | 220 | 185
7 | CGUGACUGAGGAUAUCUAUGGUAUCACAUGAGGAUCACCCAUGUCCAGCGAAAGCUGGAGGGAGAAGGCAGUCACG [Fiskers Ex 5 - 32] (puzzle: Exclusion 5) |  |  |  | 117 | 186 | 250
8 | CGUGCGUAUGUGAGGAUAUGCUGGUCCUUGGAUCAGCAGAAGGCACAUGAGGAUCACCCAUGUGGUGUCGUACA [salish99_Bmod_Ex4_016] (puzzle: Brourd's mod of Exclusion 4) |  |  |  |  | 198 | 
9 | CGUGCGUAUGUGAGGAUAUGCUGGUCCUUGGCUCGGCAGAAGGCACAUGAGGAUCACCCAUGUGGUGUCGUACA [salish99_Bmod_ex4_070] (puzzle: Brourd's mod of Exclusion 4) |  |  |  |  | 69.4 | 
10 | CGUGGAUGAAAGGAUAUUGAGGUCUGACUGCCACAAGAAGGUUCAACAUGAGGAUCACCCAUGUCUGAUCCUAA [Xeanorti] (Eterna round: R97, puzzle: Exclusion 6) | 47.4 |  | 14.2 |  |  | 
11 | CGUGUCUUUUACGUGAGUGGUGGGUGCAACAGGUGGGUUACAUGAGGAUCACCCAUGUCCUCACUUGCUCGUCUUUU [Grok-var2-08] (puzzle: Sensor v3, turn-off variant 2) |  |  |  | 76.7 | 53.5 | 69.8
12 | CGUUGAUGAGGAUAUCGAUGUUAGUACAUGAGGAUCACCCAUGUUAUCCAAGUGUCGGAUCGAGAAGGUAUUGGAC [LRO-Ex5-19] (puzzle: Exclusion 5) |  |  |  |  | 241 | 
13 | CUAGAUCUUCGGAUCUAGUACAUGAGGAUCACCCAUGUGACGAGUUGAUCCUCAUACAAGCUUUUUGCUCGUCUUAU [Sensor v3 - Turn-off variant 1 - 16] (puzzle: Sensor v3, turn-off variant 1) |  |  |  | 19.3 | 21.3 | 11.9
14 | CUAGCGAUUGUAGGAUAUCGGACUGUUUCAGUCUGAGAAGGACAUGAGGAUCACCCAUGUGAAGGAUCGUGAGAUCCACGCUAG [JL ENG1 3.79] (Eterna round: R96, puzzle: Exclusion NG 1) | 112 | 17.9 | 22 |  |  | 
15 | CUAUGAGUAGGAUAUGAGCCAAAAUACAUGAGGAUCACCCAUGUCGGGUUCAUGGAGGGCUCAGAAGGAUUCAAUA [Exclusion 5 - Laarte Mod2] (Eterna round: R97, puzzle: Exclusion 5) | 59.8 |  | 17.1 |  |  | 
16 | CUAUUGUGAGGAUAUCAGUAGUAGAACAAUAGUACUACUACUGAGAAGGCACAUGAGGAUCACCCAUGUUCCUC [Fiskers Ex 4 Super stable 44 mod 7] (puzzle: Exclusion 4) |  |  |  |  | 57.3 | 
17 | CUCCGCGGAGGAUAUGCAGCCUUCGACAUGAGGAUCACCCAUGUACAAGAUCCCUUGUCGGCAGAAGGCCGGGAGA [Usena] (Eterna round: R97, puzzle: Exclusion 5) | 114 |  | 448 |  |  | 

Row | Sequence | apparent KD of MS2 coat protein (input ligand: FMN 200 uM) [nM] | apparent KD of MS2 coat protein [1] [nM] | apparent KD of MS2 coat protein (input ligand: none) [nM] | apparent KD of MS2 coat protein [2] [nM] | apparent KD of MS2 coat protein [3] [nM] | apparent KD of MS2 coat protein [4] [nM]
18 | CUCCGGCGUGUAGGAUAUGGUUCCGAUUAGGAUCCAGAAGGACAUGAGGAUCACCCAUGUACAUGUCGUCGGUCGUCACCGGGC [salish99_ExNG1_r04_211] (Eterna round: R96, puzzle: Exclusion NG 1) | 107 | 24.1 | 29.4 |  |  | 
19 | CUCCGGCGUGUAGGAUAUGGUUCCGUUUUGGUUCCAGAAGGACAUGAGGAUCACCCAUGUACAUGUCGUCGGUCGUCACCGGGC [salish99_ExNG1_r04_214] (Eterna round: R96, puzzle: Exclusion NG 1) | 104 | 22.2 | 29.8 |  |  | 
20 | CUCCUCAUGACGCCCAACCACAUGAGGAUCACCCAUGUGCAGGCUUUUUGUCGUCUUAUAAUAAAACCGAGGAUGCG [Edusveti] (puzzle: Sensor v3, turn-off variant 1) |  |  |  | 13.3 | 49.4 | 13
21 | CUCCUCAUGGCGCCUAAACACAUGAGGAUCACCCAUGUACAGGCUUUUUGCCGUCUUAUAAUAAAACCGAGGAGGCG [Atrelele] (puzzle: Sensor v3, turn-off variant 1) |  |  |  | 21 | 146 | 23.6
22 | CUCGUGCAGCAAAGCUGUACGAGUACAUGAGGAUCACCCAUGUAGGAUAUGGUACGCAAAGCGUGCCAGAAGGACGUGAGUUAG [Mat - Exclusion NG 3 - Mod of JL - D95] (Eterna round: R96, puzzle: Exclusion NG 3) | 171 | 37.6 | 59 |  |  | 
23 | CUCGUGCAGCAAAGCUGUACGAGUACAUGAGGAUCACCCAUGUAGGAUAUGGUACGCUUUGCGUGCUAGAAGGACGUGUGUAUG [Mat - Exclusion NG 3 - Mod of JL - D90] (Eterna round: R96, puzzle: Exclusion NG 3) | 75.4 | 26.9 | 39.6 |  |  | 
24 | CUCUUGUCAGGAUAUCAACGCCGCCCACACAGGCGGCGAAAUGAGAAGGGACAUGAGGAUCACCCAUGUUAAAA [Tiaonbi] (puzzle: Exclusion 4) |  |  |  | 24.3 | 86.1 | 168
25 | CUCUUGUCAGGAUAUCAACGCCGCCCACAUGGGCAGCGAAAUGAGAAGGGACAUGAGGAUCACCCAUGUUAAAA [Retema] (puzzle: Exclusion 4) |  |  |  | 30.4 | 161 | 218
26 | CUCUUGUCAGGAUAUUAUGGACGAAGGCAGGGCCGCGUCAGUGAGAAGGGACAUGAGGAUCACCCAUGUAAAAU [Riintesoa] (puzzle: Exclusion 4) |  |  |  |  | 73.9 | 
27 | CUGAACCCGGUAGGAUAUAUUGUGGGCAAGCGUGGAACGACAUGAGGAUCACCCAUGUAAUUUAGGUAGAAGGGCCGAGAGAUU [Excl-NG2-LRO12] (Eterna round: R96, puzzle: Exclusion NG 2) | 32.5 | 41.5 | 41.5 |  |  | 
28 | CUGAGAUCAGGAUAUACAUGAGGAUCACCCAUGUAAAGUAGCUUGCGUACAGGCAGAUGUAGAAGGGAUUUCGG [Mod of JL 5 - Jieux - Exclusion 3] (Eterna round: R97, puzzle: Exclusion 3) | 29.7 |  | 26.5 |  |  | 
29 | CUGAGCAGACGAAGAUCCAACAUGAGGAUCACCCAUGUCUCAAAAGCUUUUUGCUUGUCUUAUCCUUCCCUGCUCUC [Isbies] (puzzle: Sensor v3, turn-off variant 1) |  |  |  | 14.3 | 207 | 12.9
30 | CUGAGCAGACGGAGAUCCAACAUGAGGAUCACCCAUGUCUCAAAAGCUUUUUGCUCGUCUUAUUCUCCUCUGUUCUC [Ainre] (puzzle: Sensor v3, turn-off variant 1) |  |  |  | 14.3 | 33.3 | 12.5
31 | CUGAGCUGAGGAUAUACAUGAGGAUCACCCAUGUUUUGUAGCUAGUGAAGAAGUAGAUGUAGAAGGCAGUUCGG [Mod of JL 25 - Jieux - Exclusion 3] (Eterna round: R97, puzzle: Exclusion 3) | 167 |  | 72.8 |  |  | 
32 | CUGAUGUUAGGAUAUCAGGCGCCCGCCACUGGCAAGGCGCAUGAGAAGGGACAUGAGGAUCACCCAUGUAGUAA [Maquraan] (puzzle: Exclusion 4) |  |  |  |  | 21.5 | 
33 | CUGCGUCGUGUUAGGAUAUCCAGCGGUGCGCGCCAGGAGAAGGAACAUGAGGAUCACCCAUGUAAACCGAUGGC [Aratte] (puzzle: Brourd's mod of Exclusion 4) |  |  |  |  | 11 | 
34 | CUGCUCCGUGUAGGAUAUCGCCGCACCACCCGGCGAGAAGGACAUGAGGAUCACCCAUGUAUGUUAUUAUCACGUGUGGCGCGA [Design 41] (Eterna round: R96, puzzle: Exclusion NG 1) | 16.4 | 13.9 | 17.1 |  |  | 

— the supplement of paper PMC9170038
